{
  "source": "paper PMC8231783",
  "biological_target": "transient receptor potential (TRP) channels",
  "experiment": "SPR; plasmonic tilted fiber Bragg grating (fiber-optic SPR) probe; TRP immobilised on the 50 nm gold film through 11-mercaptoundecanoic acid and EDC/NHS; CaM (0.1 nM to 10 uM) injected in a microfluidic capillary; 50 mM Tris-HCl, 100 mM NaCl, 1 mM DTT, 1 mM CaCl2, pH 7.5; read-out is the intensity change of a cladding mode",
  "data": [
    {"substance": "calmodulin (from UniProt P0DP23 1-149) (natural protein)", "values": [
      {"measurement": "intensity change of the selected cladding mode at 1 uM CaM, 30 min", "result": 1.7, "unit": "dB"}
    ]}
  ]
}
